These are literature values, as cited in publication PMC9528458.

In general, pKd refers to the Kd on a negative log10 scale, so that one unit is a factor of ten.

The data set addresses Axin DAX (Homo sapiens) (UniProt O15169).

pKd: −log10 of the molar value.

Sequence of Axin DAX (Homo sapiens) (O15169 780-862): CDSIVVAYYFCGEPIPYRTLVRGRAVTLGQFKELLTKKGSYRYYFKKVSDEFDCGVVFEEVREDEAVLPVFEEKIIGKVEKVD
Sequence of Dishevelled DIX (O14641 8-96): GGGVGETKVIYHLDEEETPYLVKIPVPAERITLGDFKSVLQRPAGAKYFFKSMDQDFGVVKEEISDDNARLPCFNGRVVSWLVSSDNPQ

Consider Dishevelled DIX (from UniProt O14641), for which the pKd is 4.82.
